Reference: article PMC7990499, “eIF2B conformation and assembly state regulate the integrated stress response” (eLife, 2021)

Experiments:
[1] = target: eIF2B(αβδγε)2 decamer (human) (UniProt Q14232); assay: fluorescence polarisation; displacement of FAM-ISRIB (2.5 nM) from 100 nM eIF2B(αβδγε)2 by titrated eIF2, eIF2-P, eIF2α or eIF2α-P; 30 min at 22°C; 20 mM HEPES-KOH pH 7.5, 100 mM KCl, 5 mM MgCl2, 1 mM TCEP; also timecourses with PKR or λ phosphatase at 5.6 μM eIF2α/eIF2α-P
[2] = target: eIF2B(αβδγε)2 decamer (human) (UniProt Q14232)

| Substance | IC50 [1] [µM] | t1/2 of BODIPY-FL-GDP exchange on eIF2 by 10 nM eIF2B(αβδγε)2 (GEF activity) at 0, 50, 100 and 250 nM eIF2-P (control 1.6 min) [2] [min] | t1/2 of BODIPY-FL-GDP exchange on eIF2 by 10 nM eIF2B(αβδγε)2 (GEF activity) at 0, 0.2, 1 and 2 μM eIF2α-P (control 2.4 min) [2] [min] |
| --- | --- | --- | --- |
| phosphorylated heterotrimeric human eIF2 (eIF2-P) (from UniProt P05198 1-315; P20042 1-333; P41091 1-472) (complex) | 0.21 | 7.2 |  |
| human phosphorylated eIF2α (eIF2α-P) (from UniProt P05198 1-315) (natural protein) | 4 |  | 6.7 |
